Measurements taken from article PMC12319226 (Frontiers in Bioinformatics, 2025).

T1: fHbp m002281 (Neisseria meningitidis, engineered fHbp …, chimera)
T1 chain: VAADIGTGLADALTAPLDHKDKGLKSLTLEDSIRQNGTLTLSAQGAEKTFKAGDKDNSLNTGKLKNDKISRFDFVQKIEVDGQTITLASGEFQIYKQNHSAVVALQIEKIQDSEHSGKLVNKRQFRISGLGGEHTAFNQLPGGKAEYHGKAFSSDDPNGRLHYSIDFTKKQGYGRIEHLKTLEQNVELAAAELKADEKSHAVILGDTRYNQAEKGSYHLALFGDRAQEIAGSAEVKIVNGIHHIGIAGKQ

T2: fHbp m001688 (Neisseria meningitidis, engineered fHbp …, point mutant)
T2 chain: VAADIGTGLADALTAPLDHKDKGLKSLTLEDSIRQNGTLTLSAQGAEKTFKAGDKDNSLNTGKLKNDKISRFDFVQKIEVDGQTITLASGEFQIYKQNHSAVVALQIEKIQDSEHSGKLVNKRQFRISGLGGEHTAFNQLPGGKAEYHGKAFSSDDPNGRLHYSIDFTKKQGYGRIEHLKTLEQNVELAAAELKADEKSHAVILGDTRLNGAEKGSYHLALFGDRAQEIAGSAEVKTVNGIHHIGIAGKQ

T3: fHbp m001660 (Neisseria meningitidis, fHbp …, point mutant)
T3 chain: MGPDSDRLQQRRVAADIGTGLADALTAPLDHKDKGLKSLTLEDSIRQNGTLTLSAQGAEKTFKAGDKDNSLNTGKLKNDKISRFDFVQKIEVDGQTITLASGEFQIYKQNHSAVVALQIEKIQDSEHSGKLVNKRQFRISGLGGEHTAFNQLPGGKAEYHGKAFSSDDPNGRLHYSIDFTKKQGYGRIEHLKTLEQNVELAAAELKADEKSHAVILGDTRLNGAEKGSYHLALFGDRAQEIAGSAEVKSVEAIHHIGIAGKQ

T4: fHbp m001207 (Neisseria meningitidis fHbp v3.28-based …, point mutant)
T4 chain: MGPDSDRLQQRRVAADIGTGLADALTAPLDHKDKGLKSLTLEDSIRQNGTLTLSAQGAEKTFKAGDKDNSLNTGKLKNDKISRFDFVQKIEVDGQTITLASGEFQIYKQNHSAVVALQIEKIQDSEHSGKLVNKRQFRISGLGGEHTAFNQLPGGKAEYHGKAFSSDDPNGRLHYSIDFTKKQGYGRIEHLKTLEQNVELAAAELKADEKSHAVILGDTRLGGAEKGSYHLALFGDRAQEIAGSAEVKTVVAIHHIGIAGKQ

T5: fHbp m001040 (Neisseria meningitidis fHbp v3.28-based …, point mutant)
T5 chain: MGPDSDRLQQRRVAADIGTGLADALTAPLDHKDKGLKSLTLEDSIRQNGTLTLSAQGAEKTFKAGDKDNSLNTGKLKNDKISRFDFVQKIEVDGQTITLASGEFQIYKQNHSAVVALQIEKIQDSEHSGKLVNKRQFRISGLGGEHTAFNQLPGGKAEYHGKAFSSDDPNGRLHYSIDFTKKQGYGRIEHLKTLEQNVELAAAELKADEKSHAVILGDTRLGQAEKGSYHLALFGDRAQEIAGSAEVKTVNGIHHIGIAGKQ

T6: fHbp m001015 (Neisseria meningitidis fHbp v3.28, …, point mutant)
T6 chain: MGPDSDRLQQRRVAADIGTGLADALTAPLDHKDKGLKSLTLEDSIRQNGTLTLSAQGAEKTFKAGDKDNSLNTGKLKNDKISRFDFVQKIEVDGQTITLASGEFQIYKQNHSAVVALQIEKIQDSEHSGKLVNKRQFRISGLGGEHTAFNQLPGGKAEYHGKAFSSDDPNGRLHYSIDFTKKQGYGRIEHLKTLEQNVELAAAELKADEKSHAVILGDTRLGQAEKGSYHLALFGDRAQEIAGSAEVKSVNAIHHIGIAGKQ

T7: fHbp m001177 (Neisseria meningitidis fHbp v3.28-based …, point mutant)
T7 chain: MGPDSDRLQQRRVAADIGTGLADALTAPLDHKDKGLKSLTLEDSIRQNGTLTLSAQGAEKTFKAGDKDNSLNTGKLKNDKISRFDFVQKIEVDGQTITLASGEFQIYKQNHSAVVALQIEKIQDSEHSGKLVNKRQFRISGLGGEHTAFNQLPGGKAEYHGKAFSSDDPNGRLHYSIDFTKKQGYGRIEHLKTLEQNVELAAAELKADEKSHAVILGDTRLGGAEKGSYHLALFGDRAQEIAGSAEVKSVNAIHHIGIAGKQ

T8: fHbp m001768 (Neisseria meningitidis, engineered fHbp …, point mutant)
T8 chain: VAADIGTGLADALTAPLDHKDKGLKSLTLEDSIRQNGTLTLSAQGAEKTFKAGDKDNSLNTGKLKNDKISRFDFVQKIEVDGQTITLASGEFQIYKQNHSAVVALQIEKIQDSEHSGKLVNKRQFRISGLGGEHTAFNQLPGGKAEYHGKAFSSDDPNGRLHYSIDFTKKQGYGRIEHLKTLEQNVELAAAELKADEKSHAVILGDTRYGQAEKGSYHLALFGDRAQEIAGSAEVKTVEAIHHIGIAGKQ

T9: fHbp m001099 (Neisseria meningitidis fHbp v3.28-based …, point mutant)
T9 chain: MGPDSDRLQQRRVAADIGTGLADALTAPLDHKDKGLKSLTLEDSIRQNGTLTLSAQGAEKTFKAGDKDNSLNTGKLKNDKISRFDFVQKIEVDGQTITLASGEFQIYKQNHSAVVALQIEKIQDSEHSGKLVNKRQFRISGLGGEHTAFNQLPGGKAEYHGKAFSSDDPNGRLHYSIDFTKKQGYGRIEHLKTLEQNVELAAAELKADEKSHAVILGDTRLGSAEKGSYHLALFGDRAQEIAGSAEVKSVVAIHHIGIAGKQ


Experiments:
Assay in all cases: BLI
Details in all cases: both partners purified
fHbp m002281 = target: T1, fHbp m002281
fHbp m001688 = target: T2, fHbp m001688
fHbp m001660 = target: T3, fHbp m001660
fHbp m001207 = target: T4, fHbp m001207
fHbp m001040 = target: T5, fHbp m001040
fHbp m001015 = target: T6, fHbp m001015
fHbp m001177 = target: T7, fHbp m001177
fHbp m001768 = target: T8, fHbp m001768
fHbp m001099 = target: T9, fHbp m001099

Binder	Kd (fHbp m002281)	koff (fHbp m002281)	kon (fHbp m002281)	Kd (fHbp m001688)	koff (fHbp m001688)	kon (fHbp m001688)	Kd (fHbp m001660)	koff (fHbp m001660)	kon (fHbp m001660)	Kd (fHbp m001207)	koff (fHbp m001207)	kon (fHbp m001207)	Kd (fHbp m001040)	koff (fHbp m001040)	kon (fHbp m001040)	Kd (fHbp m001015)	koff (fHbp m001015)	kon (fHbp m001015)	Kd (fHbp m001177)	koff (fHbp m001177)	also measured
chimeric antibody h12C1 (antibody, V domains shown, also called humanized 12C1; source: Expi293, purified (MabSelect SuRe, SEC); copies: 2 + 2) VH: QVQLQESGPELVKPGASVKISCKASGYSFSDYNMSWVKQSNGKSLEWIGIIDPKYGTINYNQKFKGKATLTVDQASSTAYMQLNSLTSEDSAVYYCVRDYYGSSYFDYWGQGTTLTVSS VL: DIVLTQSPSSIYASLGERVTLTCKASQDIHNYLNWFQQKPGKSPKTLIYRANRLVDGVPSRFSGGGSGQDYSLTISSLEFEDIGIYYCLQYDEFPPTFGGGTRLEIK	34.9 nM	0.0105 s⁻¹	300000 ± 6700 M⁻¹ s⁻¹	53.8 nM	0.0106 s⁻¹	197000 ± 3980 M⁻¹ s⁻¹	139 nM	0.0649 ± 0.00238 s⁻¹	466000 ± 71500 M⁻¹ s⁻¹	80.8 nM	0.014 s⁻¹	174000 ± 4810 M⁻¹ s⁻¹	0.523 nM	0.000192 s⁻¹	368300 ± 1820 M⁻¹ s⁻¹	187 nM	0.02355 ± 0.000153 s⁻¹	126000 ± 5980 M⁻¹ s⁻¹	92.7 nM	0.02257 ± 0.000177 s⁻¹	kon (fHbp m001177): 244000 ± 9380 M⁻¹ s⁻¹; Kd (fHbp m001768): 5.51 nM; koff (fHbp m001768): 0.000453 s⁻¹; kon (fHbp m001768): 82200 ± 1160 M⁻¹ s⁻¹; Kd (fHbp m001099): 44 nM; koff (fHbp m001099): 0.0106 s⁻¹; kon (fHbp m001099): 241000 ± 3220 M⁻¹ s⁻¹
mAb 1E6 (human) (antibody, V domains shown, source: Expi293, purified (MabSelect SuRe, SEC); copies: 2 + 2) VH: EVQLVQSGAEVKKPGSSVKVSCKASGGTVIDYPITWVRQAPGQGLEWVGGFVPLFRTSNYGQKFQGRVTITADKSTSTASMELNSLTSEDTAIYYCARGDTAMGPFDYWGQGTLVTVSS VL: SYVLTQPPSLSVAPGKTATLTCGGNNIAGKTVHWYQQRPGQAPVLVISYDSDRPSGIPERFSGSNSANTATLTISRVEAGDEADYYCQVWDRNSDHWVFGGGTKLTVL	0.217 nM	0.0001 s⁻¹	462500 ± 3370 M⁻¹ s⁻¹	0.937 nM	0.000258 s⁻¹	275900 ± 1570 M⁻¹ s⁻¹	0.706 nM	0.000209 s⁻¹	296000 ± 3450 M⁻¹ s⁻¹	0.336 nM	0.000155 s⁻¹	459700 ± 4080 M⁻¹ s⁻¹	0.594 nM	0.000266 s⁻¹	447100 ± 3340 M⁻¹ s⁻¹	1.11 nM	0.000418 s⁻¹	375100 ± 1120 M⁻¹ s⁻¹	0.609 nM	0.000279 s⁻¹	kon (fHbp m001177): 457500 ± 1660 M⁻¹ s⁻¹; Kd (fHbp m001768): 0.538 nM; koff (fHbp m001768): 0.000175 s⁻¹; kon (fHbp m001768): 325000 ± 2320 M⁻¹ s⁻¹; Kd (fHbp m001099): 0.841 nM; koff (fHbp m001099): 0.000237 s⁻¹; kon (fHbp m001099): 281500 ± 1290 M⁻¹ s⁻¹
